In PMC6499816 (2019) one finds Kd data, which are given here for one molecule.

Assay in all cases: BLI (biotin peptide on tip)
The target in one assay is T1, FYCO1 (Homo sapiens (Human), UniProt Q9BQS8).
T1 chain: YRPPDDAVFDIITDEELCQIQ

The next assay deals with T2, ATG13 (Homo sapiens (Human), UniProt O75143).
T2 chain: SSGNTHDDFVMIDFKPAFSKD

In a further assay the target is T3, P62 (Homo sapiens (Human), UniProt Q13501).
T3 chain: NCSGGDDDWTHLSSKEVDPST

B1: LC3C (protein)
chain: MPPPQKIPSVRPFKQRKSLAIRQEEVAGIRAKFPNKIPVVVERYPRETFLPPLDKTKFLVPQELTMTQFLSIIRSRMVLRATEAFYLLVNNKSLVSMSATMAEIYRDYKDEDGFVYMTYASQETFG
Take B1: the Kd in the assay with FYCO1 came to 3000 nM; with ATG13 it was 480 nM; with P62, 2700 nM.
